Laboratory results taken from paper PMC9430884.

Legend:
[1] = target: Gal4BD-CckAΔTM (Rhodobacter sphaeroides)
[2] = target: CckA_(L391F) (two-hybrid fusion) (Rhodobacter sphaeroides); settings: scale: times higher concentration of Osp than for wild-type CckA

inhibition of CckA autophosphorylation with [γ-32P]ATP, purified proteins (2.5 μM His6-CckA cytoplasmic domain, Osp-His6 0 to 10 μM, 30 min) [1]: 50%
inhibition of CckA L391F autophosphorylation with [γ-32P]ATP, purified proteins (2.5 μM His6-CckA L391F cytoplasmic domain, Osp-His6 0 to 10 μM, 30 min), against wild-type CckA [2]: 4
Substance: Gal4AD-Osp (natural protein)
